{"source": "patent US12630594B2", "about": "“Allergy antigen and epitope for same” (HOYU CO., LTD., priority 2017, dated 2026)", "molecules": {"B1": {"name": "Myosin-binding protein C, fast-type-like (protein)", "chain": "MPEAADAVKPEGEEGEAPAEAEENTAEDDEPLPEGEEGAHQSQEITGLFLQHPETTVAITGTDIVFTAKVDSTTLSRKPTIKWLKGKWLDLGSKAGKHMQFKETFDRATKIYTWDMKIIKVVPGDAGAYRCEVTSKDKCDSSAFDISVEAVQIEEEHDSLAAFKRTDAGEDEGSLDFSALLKATKKKKKPVVDEEKADVWEILKNAQPSEYEKIAFEYGITDLRGLLKRLKKMKTVEPKHSDAFLKRMESAYSVDKGKKIVLQVEVVDPNAQVKWLKNGQEIKSSAKYIIESVGNIRTLTINKCSLADDAAYECVIGEEKSFTEVFVKEPPVTITKLLDDYHVVVGERVEFEVEVSVEGAHVNWMFEDQELSRDTHKYRFKKDGLKHMLIIQEATLDDIGMYWCFTNGGRTKGELEVEEKELEVLQNIADLTVKAEDQAMFKCEVSDEKVTGKWLKDGVEVLPSSRIKLTHIGRIHRLTIDDVKPEDAGDYTFIPDGYALSLSAKLNFLEIKIDYVPRQEPPKIHLDTTGNMVSQNTIIVVAGNKLRLDVEISGEPPPTVVWAKGDTAITAVEGRVRTESRKDLSCFVIEGAEREDEGNYTIIVTNPAGEDKAHLFVKIVDVPDCPENVKCTSVGEDCATMVWDPPKFDGGAPVTGYLMERKKKGSTRWTKLNFDVYEGVTYEAKRMIEGVLYEMRVYAVNGIGMSQPSLNSKPFMPIAATSEPLGLKVHDVTDTTCTLKWLAPEKIGAGGLDGYVIEYCKEGDTEWVVANTELVERQNYTVRNLPTAEKINFRVVAVNIAGRSPPTGLSQPVTIREIVELPKIRLPRYLRQKYIRRVGDKINLTIPFQGKPRPKVQWYKDGEELDTRVASIRNSEVDSILFIRSAERSHSGKYELVLQIENMEARAILEIRIVEAPGPPEVVKVTDVWGFNAALEWKPPKDDGNCEITGYTIQKADKKTNEWFTIYEHNRRTNCTASDLIMGNEYMFRVFSENLVGKSEDFCLSKDTAIIPKIGLEYNPPPFKEKDMQSAPKFIQPLLDRSVVAGYSTTISSAVKTCPKPKIRWLRNKIPLDENPRFLMQNNQGVLTLNIRKPSQYDGGKFTCKAINSLGEDVVECTLLVRALKDKEDGDEK", "modifications": "myosin-binding protein C, fast-type-like"}, "B2": {"name": "Glycogen phosphorylase, muscle form-like (protein)", "chain": "MSKPLSDHDKRKQISVRGLAGVENVAELKVAFNRHLHFTLVKDRNVANKRDYYFALANTVRDHLVGRWIRTQQYYYEKDPKRVYYISLEFYMGRTLQNTMVNLALENACDEAIYQLGLDMEELEDMEEDAGLGNGGLGRLAACFLDSMASLGLAAYGYGIRYEFGIFNQKIVNGWQVEEADDWLRYGNPWEKARPEYMRPVKFYGRTEHTPDGVKWVDTQVVLALPYDTPIPGYRNNIVNTMRLWSAKAPCDFNLKDFNVGGYIQAVLDRNLCENISRVLYPNDNFFEGKELRLKQEYFVVAATLQDVVRRFKASKFGSREIVRTDFAELPNKVAIQLNDTHPAMAIPELMRVLVDEEKLGWDKAWDVCVRTCAYTNHTVLPEALERWPIDLFHHLLPRHLEIIYEINRRFMEYVASKFPGDNDRLRRMSLIEEGGCKKVNMAHLCIVGSHAVNGVARIHSEILIATLFKDFYELDPHKFQNKTNGITPRRWLVMCNPGLAEVIAEKIGEEFIRDLDQLKRLLKFVNDDAFIRDIAKVKQENKLKFAVHLEEHYKVKINPQSMFDFQVKRIHEYKRQLLNCLHMITYYNRIKKEPNKHWTPRTIMVGGKAAPGYHTAKMIIRLITAIGEVVNHDPVVGDRLKVIFLENYRVTLAEKAIPSADLSEQISTAGTEASGTGNMKFMLNGALTIGTMDGANVEMAEEAGEENFFIFGMRVEDVDAMDAGKGYHASEYYNRIPELKQAMDQIAGGFFSPKQPDLFKELVDLLMHHDRFKVFADYEAYIKCQDKVNQLYKNPKEWTKMVIHNIAGCGKFSSDRTIAQYAREIWGMEPSLEKIPAPDEKLK", "modifications": "glycogen phosphorylase, muscle form-like"}, "B3": {"name": "Myosin binding protein H-like (protein)", "chain": "MPAKPAPIKKAAPKEPAPKKEEAPAPAPAEAAPAEVAPPAEVEAPPAEAAPAEAAAPAEAAPTEEKAPAEPAPEQPKAPTPPPPDEPTSEPLEVTVDDKSDTSVTITWRPPKTIPANSGLDGYTVEITKEGTEDWKAANEDLTVSCRYVIKNQTTGDRLLIRVVAVNPGGRSPPATIADPVLVKEVGARPKVRLPRFLRQRYVKKVGEKINIVIPYSGKPKPVVSWLKDGQPLDSKRANIRTSDRDSILFIRQAERVDSGSYEMCVKVDDFEDKAAIIIQIIELPGPPASIKIVDVWGFNVALEWTVPKDNGNTEITGYTVQKADKKTGDWFNILEHYARLNATISDLIMGNTYTFRVFAENKCGLSEECAVTKGEATIVKEVIDYKPTPFVEHDFTEAPKFTTVLNDRSTTVGYSTKLLCSVRGCPKPKIMWMKNKMILNNMDNPKYRMISTGGICTLEIRKPGPYDGGEYVCRAENTLGKVDTGCKLEVRKPGQADADKDKKEQ", "modifications": "Myosin binding protein H-like"}, "B4": {"name": "Desmin (fragment) (protein)", "chain": "ISSYRRTFGSGIGSTPGMSSMFSHGGRGSSGSAHMSSRVYEMTKSSARPSYSSGSIRSSSGGAMRSYAGMGEKLDFNLADATNRDFLDTRTNEKAELQHLNDRFASYIEKVRFLEQQNATLVVEIERLRGHEPTRVAEMYEEEMRELRRQVDGMSNDRARMEVERDNLADDLQKLKLRLQEVIHQREEAENNLSAFRADVDSATLARLDLERRIESLQEEITFLKKIHEEEIHELTSQMQETSVQVQMDMSKPDLTVALRDIRMQYEGIAAKNISEAEDWYKSKVSDLNQAVNKNNDALRQAKQESMEFRHQIQSYTCEIDSLKGTNESLLRQMREMEDRLGNEAGGYQDSVTRLEAEIAKMKDEMARHLREYQDLLNVKMALDIEIATYRKLLEGEESRITVSGSKSSHSGSHSAASLYSTVGFRETSPDVGRSAEVHSKKTVLIKTIETRDGEVVSE", "modifications": "Desmin (fragment)"}, "B5": {"name": "Alpha-actinin-3 (protein)", "chain": "MTAIETQVQYGSYMTSEQVYMTQEDDWDRDLLLDPAWEKQQRKTFTAWCNSHLRKAGTQIENIEEDFRNGLKLMLLLEVISGERLPKPDKGKMRFHKIANVNKALDFICSKGVKLVSIGAEEIVDGNVKMTLGMIWTIILRFAIQDISVEETSAKEGLLLWCQRKTAPYRNVNVQNFHISWKDGLALCALIHRHRPDLIDYSKLRKDDPMGNLNTAFEVAEKYLDIPKMLDAEDIVNTPKPDEKAIMTYVSCFYHAFAGAEQAETAANRICKVLAVNQENEKLMEEYEKLASELLEWIRRTIPWLENRVAEQTMRAMQQKLEDFRDYRRVHKPPKVQEKCQLEINFNTLQTKLRLSNRPAFMPSEGKMVSDIANAWKGLEQVEKGYEEWLLTEIRRLERLDHLAEKFKQKSSLHESWTSGKVELLSMKDYESASLMEIRALMRKHEAFESDLAAHQDRVEQIAAIAQELNELDYHDAVTINARCQGICDQWDNLGTLTQKRRDSLERVEKLWETIDQLYLEFAKRAAPFNNWMDGAMEDLQDMFIVHSIEEIQSLITAHDQFKATLPEADKERVATMGIQNEIVKIAQTYGIKLSGVNPYTNLSPQDITDKWDAVKHLVPLRDQMLQEEVARQQSNERLRRQFAAQANIIGPWIQTKMEEISHVSVDIAGSLEEQMSNLKQYEQNIINYKCNIDKLEGDHQLSQESLIFDNKHTNYTMEHVRVGWEQLLTTIARTINEVENQILTRDAKGISQEQLNEFRASFNHFDRKRNGMMDPDDFRACLISMGYDLGEVEFARIMTLVDSNNTGVVTFQAFIDFMTRETAETDTADQVMASFKILASDKTYITVEELRRELPPEQADYCISRMTSYIGSGAPPGALDYISFSSALYGESDL", "modifications": "PREDICTED: alpha-actinin-3"}}}
{"tested_on": "IgE antibody in the serum of a fish-allergic patient", "test": "Immunoblotting of two-dimensional electrophoresis patterns of fish meat proteins with patient serum", "format": "binding, human", "conditions": "proteins contained in salmon meat; serum from fish-allergic patient 2 (FIG. 1B left)", "method": "(§1) Proteins contained in fish were analyzed by the aforementioned technique to identify antigens of an allergy to fish. To be specific, proteins were extracted from fish meat and subjected to two-dimensional electrophoresis under the conditions described below.\n(§2) The electrophoresis in the first dimension was isoelectric focusing, which was performed using isoelectric focusing gels with a gel-strip length of 5 to 10 cm and a gel pH range of 3 to 10. The pH gradient of the gels in the direction of electrophoresis was as follows: with the total gel-strip length being taken as 1, the gel-strip length up to pH 5 was “a=0.15 to 0.3”, the gel-strip length from pH 5 to 7 was “b=0.4 to 0.7”, and the gel-strip length above pH 7 was “c=0.15 to 0.3”. More specifically, the isoelectric focusing was performed using the IPG gels, Immobiline Drystrip (pH3-10NL), produced by GE Healthcare Bio-Sciences Corporation (hereinafter abbreviated as “GE”). The electrophoresis system used was IPGphor produced by GE. The maximum current of the electrophoresis system was limited to 75 μA per gel strip. The voltage program adopted to perform the first-dimensional isoelectric focusing was as follows: (1) a constant voltage step was performed at a constant voltage of 300 V until the volt-hours reached 750 Vhr (the current variation width during electrophoresis for 30 minutes before the end of this step was 5 μA); (2) the voltage was increased gradually to 1000 V for 300 Vhr; (3) the voltage was further increased gradually to 5000 V for 4500 Vhr; and then (4) the voltage was held at a constant voltage of 5000 V until the total Vhr reached 12000.\n(§3) The electrophoresis in the second dimension was SDS-PAGE, which was performed using polyacrylamide gels whose gel concentration at the distal end in the direction of electrophoresis was set to 3 to 6% and whose gel concentration at the proximal end was set to a higher value than that at the distal end. More specifically, the SDS-PAGE was performed using NuPAGE 4-12% Bris-Tris Gels (IPG well, Mini, 1 mm) produced by Life Technologies. The electrophoresis system used was XCell SureLock Mini-Cell produced by Life Technologies. The electrophoresis was run at a constant voltage of 200 V for about 45 minutes using an electrophoresis buffer composed of 50 mM MOPS, 50 mM Tris base, 0.1% (w/v) SDS and 1 mM EDTA.\n(§4) Identification of antigens by immunoblotting was carried out by taking all the steps up to the step of “Second-dimensional SDS-PAGE” as described above in Example 1, followed by the steps of “Transfer to membrane”, “Immunoblotting” and “Analysis” as described below.\n(§5) To be specific, proteins in the second-dimensional electrophoresis gels were transferred to a membrane (PVDF membrane) according to the following procedure. • (1) The PVDF membrane was immersed in 100% methanol followed by milliQ water, and then moved into the transfer buffer to hydrophilize the PVDF membrane. • (2) After sponge, filter paper, the second-dimensional electrophoresis gels treated by second-dimensional SDS-PAGE, the hydrophilized PVDF membrane, filter paper, and sponge were put in place in this order, the transfer system was energized at a constant voltage of 30 V for one hour. Immunoblotting\n(§6) Immunoblotting of the membrane was carried out using, as a primary antibody, a serum sample from patient 1 with a fish allergy or a serum sample from a non-fish-allergic subject. This fish-allergic patient 1 was a patient diagnosed with immediate-type allergy to fish. […]"}
{"molecule": "B1", "spots detected by immunoblotting, different from spots with serum of non-fish-allergic subject": "newly detected"}
{"molecule": "B2", "spots detected by immunoblotting, different from spots with serum of non-fish-allergic subject": "newly detected"}
{"tested_on": "IgE antibody in the serum of a fish-allergic patient", "test": "Immunoblotting of two-dimensional electrophoresis patterns of fish meat proteins with patient serum", "format": "binding, human", "conditions": "proteins contained in salmon meat; serum from fish-allergic patient 3 (FIG. 1B right)", "method": "as §1, §2, §3, §4, §5, §6"}
{"molecule": "B3", "spots detected by immunoblotting, different from spots with serum of non-fish-allergic subject": "detected"}
{"molecule": "B4", "spots detected by immunoblotting, different from spots with serum of non-fish-allergic subject": "detected"}
{"tested_on": "IgE antibody in the serum of a fish-allergic patient", "test": "Immunoblotting of two-dimensional electrophoresis patterns of fish meat proteins with patient serum", "format": "binding, human", "conditions": "spots in two-dimensional electrophoresis gel of proteins in fish; patients diagnosed with immediate-type allergy", "method": "as §1, §2, §3, §4, §5, §6"}
{"molecule": "B1", "specific binding to IgE antibodies from fish-allergic patients": "specific binding to IgE antibodies"}
{"molecule": "B3", "specific binding to IgE antibodies from fish-allergic patients": "specific binding to IgE antibodies"}
{"molecule": "B4", "specific binding to IgE antibodies from fish-allergic patients": "specific binding to IgE antibodies"}
{"molecule": "B5", "specific binding to IgE antibodies from fish-allergic patients": "specific binding to IgE antibodies"}
{"molecule": "B2", "specific binding to IgE antibodies from fish-allergic patients": "specific binding to IgE antibodies"}
